Measured values from paper PMC4982137, “Mycobacterium tuberculosis H37Ra: a surrogate for the expression of conserved, multimeric proteins of M.tb H37Rv” (Microbial Cell Factories, 2016).
Structures can show the parent of a compound that is named as a salt.

How the values were obtained:
[1] = target: T1, MT-PykA-H (M.tb H37Rv PykA) (Mycobacterium tuberculosis, UniProt P9WKE5)
T1 construct: gene pyk

O=C[C@H](O)COP(=O)(O)O = test: purified protein; settings: pH 8.5; 25.0 °C
[2] = system: NC(=O)c1ccc[n+]([C@@H]2O[C@H](COP(=O)(O)OP(=O)(O)OC[C@H]3O[C@@H](n4cnc5c(N)ncnc54)[C@H](O)[C@@H]3O)[C@@H](O)[C@H]2O)c1; test: purified protein; settings: pH 8.5; 25.0 °C
[3] = target: transferrin-biotin (human) (UniProt P02787); test: pull-down
[4] = target: MT-H-Eno (M.tb H37Rv Enolase) (Mycobacterium tuberculosis, UniProt P9WNL1)
MT-H-Eno (M.tb H37Rv Enolase), sequence (P9WNL1 whole entry, looked up): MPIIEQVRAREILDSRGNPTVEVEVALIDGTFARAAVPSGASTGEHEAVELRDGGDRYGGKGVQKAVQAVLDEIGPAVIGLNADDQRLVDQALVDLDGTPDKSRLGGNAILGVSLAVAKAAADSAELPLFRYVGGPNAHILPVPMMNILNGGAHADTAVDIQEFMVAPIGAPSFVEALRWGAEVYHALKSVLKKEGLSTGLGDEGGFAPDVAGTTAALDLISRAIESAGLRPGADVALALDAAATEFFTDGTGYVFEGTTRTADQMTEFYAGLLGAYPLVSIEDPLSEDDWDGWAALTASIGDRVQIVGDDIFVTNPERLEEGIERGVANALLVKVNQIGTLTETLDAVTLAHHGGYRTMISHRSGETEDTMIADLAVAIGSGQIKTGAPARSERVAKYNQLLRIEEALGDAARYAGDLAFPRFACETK

T1 sequence (P9WKE5 whole entry, looked up): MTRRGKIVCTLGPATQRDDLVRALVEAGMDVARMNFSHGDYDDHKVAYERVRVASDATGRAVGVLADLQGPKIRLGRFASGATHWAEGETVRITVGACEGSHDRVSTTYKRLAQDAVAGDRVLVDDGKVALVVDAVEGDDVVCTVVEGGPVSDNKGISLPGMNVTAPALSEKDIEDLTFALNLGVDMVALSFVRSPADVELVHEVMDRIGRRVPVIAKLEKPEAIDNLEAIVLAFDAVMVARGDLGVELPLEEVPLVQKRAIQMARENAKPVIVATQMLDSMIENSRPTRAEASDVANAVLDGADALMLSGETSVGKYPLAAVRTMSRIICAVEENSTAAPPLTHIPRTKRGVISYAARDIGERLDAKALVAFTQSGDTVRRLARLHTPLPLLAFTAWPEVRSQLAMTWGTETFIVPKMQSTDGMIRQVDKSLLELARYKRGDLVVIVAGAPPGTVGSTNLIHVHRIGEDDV
transferrin-biotin (human), sequence (P02787 20-698): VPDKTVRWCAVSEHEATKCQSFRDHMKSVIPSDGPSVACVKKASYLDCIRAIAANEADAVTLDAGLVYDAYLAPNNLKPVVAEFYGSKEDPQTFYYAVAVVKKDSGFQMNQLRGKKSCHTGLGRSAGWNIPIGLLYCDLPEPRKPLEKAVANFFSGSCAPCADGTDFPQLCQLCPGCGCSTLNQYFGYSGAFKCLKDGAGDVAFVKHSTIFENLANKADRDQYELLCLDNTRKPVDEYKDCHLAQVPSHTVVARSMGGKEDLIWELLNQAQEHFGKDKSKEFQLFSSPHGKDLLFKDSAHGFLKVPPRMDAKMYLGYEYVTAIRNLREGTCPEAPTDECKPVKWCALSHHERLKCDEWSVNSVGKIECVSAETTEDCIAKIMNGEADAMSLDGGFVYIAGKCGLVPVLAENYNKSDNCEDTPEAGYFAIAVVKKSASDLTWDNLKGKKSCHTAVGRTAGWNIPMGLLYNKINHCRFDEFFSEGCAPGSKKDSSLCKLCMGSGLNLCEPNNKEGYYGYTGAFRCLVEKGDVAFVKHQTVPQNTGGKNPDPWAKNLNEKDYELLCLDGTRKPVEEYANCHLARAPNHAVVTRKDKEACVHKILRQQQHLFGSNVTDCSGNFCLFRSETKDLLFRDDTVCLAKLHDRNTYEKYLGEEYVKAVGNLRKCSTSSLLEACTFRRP

For `C=C(OP(=O)(O)O)C(=O)O` [sodium phosphoenol pyruvate], the “lactate dehydrogenase-coupled NADH oxidation at 340 nm” value [1] was “buffer lacking the specific substrate sodium phosphoenol pyruvate”.
Molecule “MT-GAPDH-H (M.tb rGAPDH) (Mycobacterium tuberculosis H37Rv)” has a Km (O=C[C@H](O)COP(=O)(O)O) of 169.6 ± 10.53 µM, a kcat (O=C[C@H](O)COP(=O)(O)O) of 0.00332 ± 0.0002 s⁻¹ and a Km [2] of 101.2 ± 8.9 µM.
For “EC-H-GAPDH: recombinant M.tb H37Rv GAPDH with an N-terminal His tag, expressed in E. coli (from UniProt P9WN83 1-339) (enzyme)”, the percent decrease of binding against MT-GAPDH-H (densitometry) [3] was 70%.
`O=C(O)[C@@H](CO)OP(=O)(O)O` [D (+)-2 phosphoglyceric acid sodium salt] was tested, and the “absorbance increase at 240 nm” value [4] was “buffer lacking the specific substrate 2-PG”.
